Consider 1 molecule from patent publication US9951373B2, “Oplophorus-derived luciferases, novel coelenterazine substrates, and methods of use” (Promega Corporation, priority 2010, dated 2018).

A short description of data set [1]: Thermal stability of OgLuc variants at 60° C. Particulars: 60° C., assay buffer MES pH 6.0. It is filed as physicochemical. The protocol:
Aliquots were removed at different time-points and placed on dry ice to freeze the samples. […] Luminescence was measured on a GLOMAX® luminometer (Promega Corp.).
The thermal stability of the variants at 60° C. was examined as described above, except the assay buffer contained 100 mM MES pH 6.0 instead of HEPES.

Data set [2] is described as follows: Exposure of OgLuc variant to urea. The class given is physicochemical. The note with it: 3 M urea, 30 min at 25° C. The protocol: Since Firefly luciferase is known to be relatively unstable, it is much more sensitive to urea exposure. To determine whether this was also the case with the OgLuc variants, the sensitivity of the OgLuc to urea was determined 5 μl of 45.3 μM L27V enzyme was mixed with 100 μL of a urea solution (100 mM MOPS, pH 7.2, 100 mM NaCl, 1 mM CDTA, 5% glycerol and various concentrations of urea) and incubated for 30 min at room temperature. 5 μL of the urea+L27V enzyme solution was diluted 10,000-fold into DMEM without phenol red+0.1% PRIONEX®, 50 μL was mixed with 50 μL of assay reagent containing 100 μM PBI-3939 (previously described) and the luminescence was read at 10 min. (FIG. 88).
A 0.31 mg/mL stock of purified L27V variant was diluted 100,000-fold into buffer (PBS+1 mM DTT+0.005% IGEPAL) and incubated with 3 M urea for 30 min at 25° C. and then mixed 1:1 (50 μL+50 μL) with an assay reagent containing 100 μM PBI-3939 (previously described). The reactions were read on a TECAN® INFINITE® F500 luminometer as described previously (for 100 min; 1 min read intervals) (FIG. 89).

B1: L27V: 9B8 opt+K33N variant with L27V, T39T, K43R, Y68D (SEQ ID NO: 89) (protein)
chain: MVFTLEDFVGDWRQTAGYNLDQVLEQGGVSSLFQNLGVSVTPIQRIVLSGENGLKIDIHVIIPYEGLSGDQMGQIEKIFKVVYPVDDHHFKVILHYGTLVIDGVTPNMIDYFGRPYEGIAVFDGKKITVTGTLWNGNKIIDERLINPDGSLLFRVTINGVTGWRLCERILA
With B1, the 1/2 life hours in data set [1] was determined as 21.7 h. Also, the reduction of activity entry in data set [2] is reported as “approximately 50%”.
